Assay results as given in patent publication US9540424B2, “Serum albumin binding molecules” (BRISTOL-MYERS SQUIBB COMPANY, priority 2010, dated 2017).

Target: MuSA (Mus musculus, UniProt P07724)
Assay: SPR (Biacore T100) kinetics of FGF21-SABA1 fusions: MuSA
Format: binding, murine
Parameters: purchased Sigma A3559
Conditions: flow rate 30 μl/min, up to 1 uM analyte
Experimental: The binding competency and thermodynamic characterization of FGF21-SABA fusion variants to human serum albumin were performed using Isothermal Titration calorimetry on a Microcal VP-ITC instrument (Microcal Inc. Amherst Mass., USA). […] The detailed experimental conditions are described below.
For the calorimetry assay, the FGF21-SABA variant SABA1-FGF21v1 (SEQ ID NO: 132) was used. […] For the SPR studies, SABA1-FGF21v1 and SABA1-FGF21v3 (SEQ ID NO: 134) were examined.
Serum albumins were dissolved in PBS buffer (10 mM sodium phosphate, 130 mM sodium chloride, pH 7.1) to a concentration of 10 mg/ml, and subsequently diluted to 8-10 μg/ml in 10 mM sodium acetate pH 5.0 for immobilization. Serum albumins were immobilized on a Series S CMS sensor chip using standard ethyl(dimethylaminopropyl) carbodiimide (EDC)/N-hydroxysuccinimide (NHS) chemistry in HBS-EP+ running buffer at 25° C., following general manufacturer guidelines. Flow cell 1 was activated with EDC/NHS and blocked with ethanolamine. […] Kinetic experiments were performed in PBS buffer containing 0.05% tween-20 (running buffer) at either 25° C. or 37° C. […] These samples were injected across flow cells 1-4 for 300 s, with a 420 s dissociation time, at flow rates of 30 μl/min or 60 μl/min to check for mass transfer limitation. All surfaces were regenerated with 2 pulses of 10 mM glycine pH 2.0 at 30 μl/min for 30 s. Raw sensograms were “double-referenced” by subtracting flow cell 1 data from flow cell 2, 3 or 4 data, and then subtracting a separate buffer cycle from each sensogram. The double-referenced sensogram data was fitted to a 1:1 Langmuir model using Biacore T100 Evaluation software version 2.0.2 to determine the association rate constant (ka), the dissociation rate constant (kd), and the equilibrium dissociation constant (KD).

MuSA, sequence (P07724 25-608): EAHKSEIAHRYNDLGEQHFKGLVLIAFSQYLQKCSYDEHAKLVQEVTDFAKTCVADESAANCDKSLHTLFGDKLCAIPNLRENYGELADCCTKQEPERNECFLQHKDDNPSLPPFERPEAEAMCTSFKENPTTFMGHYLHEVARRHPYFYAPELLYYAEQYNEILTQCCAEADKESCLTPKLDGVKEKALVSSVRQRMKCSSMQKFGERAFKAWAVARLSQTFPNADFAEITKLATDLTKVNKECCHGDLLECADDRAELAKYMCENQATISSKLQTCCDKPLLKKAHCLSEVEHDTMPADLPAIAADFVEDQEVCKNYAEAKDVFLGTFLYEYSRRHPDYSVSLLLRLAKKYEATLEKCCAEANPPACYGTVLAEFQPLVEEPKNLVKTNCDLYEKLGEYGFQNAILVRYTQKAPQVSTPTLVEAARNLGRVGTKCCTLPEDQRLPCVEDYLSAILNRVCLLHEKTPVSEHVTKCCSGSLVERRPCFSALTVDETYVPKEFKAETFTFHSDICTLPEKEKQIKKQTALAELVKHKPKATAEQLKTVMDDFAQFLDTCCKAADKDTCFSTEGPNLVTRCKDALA

binding to MuSA (25° C.): no binding observed up | binding to MuSA (37° C.): no binding observed up
B1: SABA1-FGF21v1: SABA1-FGF21 fusion, SEQ ID NO: 132; 293 aa; DNA SEQ ID NO: 184 (protein)
chain: MGVSDVPRDLEVVAATPTSLLISWHSYYEQNSYYRITYGETGGNSPVQEFTVPYSQTTATISGLKPGVDYTITVYAVYGSKYYYPISINYRTEIEKPSQGSGSGSGSGSGSGSPIPDSSPLLQFGGQVRQRYLYTDDAQQTEAHLEIREDGTVGGAADQSPESLLQLKALKPGVIQILGVKTSRFLCQRPDGALYGSLHFDPEACSFRELLLEDGYNVYQSEAHGLPLHLPGNKSPHRDPAPRGPARFLPLPGLPPALPEPPGILAPQPPDVGSSDPLSMVGPSQGRSPSYAS
